B1: Integrin alpha-L (Homo sapiens), P20701 (parent)
chain: MKDSCITVMAMALLSGFFFFAPASSYNLDVRGARSFSPPRAGRHFGYRVLQVGNGVIVGAPGEGNSTGSLYQCQSGTGHCLPVTLRGSNYTSKYLGMTLATDPTDGSILACDPGLSRTCDQNTYLSGLCYLFRQNLQGPMLQGRPGFQECIKGNVDLVFLFDGSMSLQPDEFQKILDFMKDVMKKLSNTSYQFAAVQFSTSYKTEFDFSDYVKRKDPDALLKHVKHMLLLTNTFGAINYVATEVFREELGARPDATKVLIIITDGEATDSGNIDAAKDIIRYIIGIGKHFQTKESQETLHKFASKPASEFVKILDTFEKLKDLFTELQKKIYVIEGTSKQDLTSFNMELSSSGISADLSRGHAVVGAVGAKDWAGGFLDLKADLQDDTFIGNEPLTPEVRAGYLGYTVTWLPSRQKTSLLASGAPRYQHMGRVLLFQEPQGGGHWSQVQTIHGTQIGSYFGGELCGVDVDQDGETELLLIGAPLFYGEQRGGRVFIYQRRQLGFEEVSELQGDPGYPLGRFGEAITALTDINGDGLVDVAVGAPLEEQGAVYIFNGRHGGLSPQPSQRIEGTQVLSGIQWFGRSIHGVKDLEGDGLADVAVGAESQMIVLSSRPVVDMVTLMSFSPAEIPVHEVECSYSTSNKMKEGVNITICFQIKSLIPQFQGRLVANLTYTLQLDGHRTRRRGLFPGGRHELRRNIAVTTSMSCTDFSFHFPVCVQDLISPINVSLNFSLWEEEGTPRDQRAQGKDIPPILRPSLHSETWEIPFEKNCGEDKKCEANLRVSFSPARSRALRLTAFASLSVELSLSNLEEDAYWVQLDLHFPPGLSFRKVEMLKPHSQIPVSCEELPEESRLLSRALSCNVSSPIFKAGHSVALQMMFNTLVNSSWGDSVELHANVTCNNEDSDLLEDNSATTIIPILYPINILIQDQEDSTLYVSFTPKGPKIHQVKHMYQVRIQPSIHDHNIPTLEAVVGVPQPPSEGPITHQWSVQMEPPVPCHYEDLERLPDAAEPCLPGALFRCPVVFRQEILVQVIGTLELVGEIEASSMFSLCSSLSISFNSSKHFHLYGSNASLAQVVMKVDVVYEKQMLYLYVLSGIGGLLLLLLIFIVLYKVGFFKRNLKEKMEAGRGVPNGIPAEDSEQLASGQEAGDPGCLKPLHEKDSESGGGKD
partner: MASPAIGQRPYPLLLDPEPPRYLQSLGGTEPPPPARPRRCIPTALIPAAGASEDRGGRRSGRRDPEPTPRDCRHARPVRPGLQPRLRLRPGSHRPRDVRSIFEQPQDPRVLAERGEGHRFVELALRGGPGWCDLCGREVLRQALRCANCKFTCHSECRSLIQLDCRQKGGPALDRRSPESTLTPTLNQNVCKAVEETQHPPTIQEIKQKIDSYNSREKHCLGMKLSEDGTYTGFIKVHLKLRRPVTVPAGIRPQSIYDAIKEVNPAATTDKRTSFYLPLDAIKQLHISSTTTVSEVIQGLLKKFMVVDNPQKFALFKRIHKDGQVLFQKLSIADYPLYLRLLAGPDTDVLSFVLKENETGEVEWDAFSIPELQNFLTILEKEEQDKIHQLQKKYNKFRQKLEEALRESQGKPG

Variants of: B1
Conditions: with rasf5_mouse Rassf5, Q5EBH1

Row | Variant | effect of a mutation on the interaction
1 | K1122A;K1124A | disrupting interaction

Source: IntAct's records for PubMed 12845325
